In series [1] the test system is OVA sensitized rat model. Kind of series: Dose responsiveness of budesonide alone in OVA sensitized rat model. It is filed as in vivo. Conditions: doses 0.01, 0.1, 1, 10 mg/kg to bronchus 1 hour before 4th and 5th OVA exposure. Here is the method:
Dose responsiveness of budesonide alone in an OVA sensitized rat model was determined.
There were four doses for determination, i.e., 0.01 mg/kg, 0.1 mg/kg, 1 mg/kg, and 10 mg/kg.
As a test system, a male BN rat was used. For OVA sensitization, 1 mL of Alum containing 1 mg/mL OVA was administered intraperitoneally. After the sensitization, physiological saline containing 10 mg/mL OVA was used for inhalation exposure, 5 times every 24 hours, by using a nebulizer. The test substance was administered to a bronchus 1 hour before the 4th and 5th inhalation exposure of OVA.
On Hour 24 after the final exposure, 2 mL of PBS containing 0.1% BSA (heated to 37° C.) was administered under pentobarbital anesthesia to a bronchus followed by recovery. This procedure was repeated 5 times to give bronchoalveolar lavage fluid (BALF).
BALF was centrifuged for 3 minutes at 200×g and room temperature. The supernatant was discarded, and the pellet was re-suspended in PBS (500 μL, heated to 37° C.) containing 0.1% BSA. Subsequently, a smear sample of the BALF was prepared followed by Diff-Quik staining. According to cell fractionation, ratio of eosinophil in white blood cells was calculated. According to integration with the number of white blood cells in BALF, the number of […] in BALF was calculated (number of white blood cells was measured by using blood cell counting chamber).

Series [2] in a line: in vivo. As to conditions: BN/CrlCrlj, rat, in vivo. Here is the method: As a test substance, the compound is was used, and it was used after being dissolved in phosphate buffered saline such that the pharmaceutical concentration is 3 mg/mL.
For the test, a BN/CrlCrlj rat (Charles River Laboratories International, Inc., 5-week old) was used. It was placed on its back and fixed under general anesthesia, and by using a sonde for intratracheal administration (MicroSprayer (registered trademark) Aerosolizer Model IA-1B, manufactured by Penn-Century), intratracheal administration was performed with volume of 100 μL. As general anesthesia, inhalation of isoflurane (concentration of 3.0% and flow rate of 2.0 L/min) was employed.
Weight of the pulmonary tissue was measured and, after being added with an aqueous solution of ammonium formic acid (pH 6.0):methanol (3:2, v/v) at ratio of 40× (1 g: 40 mL), it was homogenated for about 1 minute under ice cooling by using a homogenizer. […] Meanwhile, the measurement was made with n=3 for each evaluation time point.
Each parameter of pharmacokinetics was calculated from a change in average content in pulmonary tissue. If there was an animal showing the measurement value of less than the lower limit of quantification, the average content in pulmonary tissue was calculated by substituting the value of 0 (zero) for it. The time t (hr) for calculating AUC0-t was the final time point at which the quantification can be made. Meanwhile, for calculation of the parameters of pharmacokinetics, non-compartmental analysis model analysis by WinNonlin Professional (registered trademark) Ver 5.2.1 was used. […] The results are shown in FIG. 2 and the following table.
The compounds vb obtained from Example 5 was evaluated in the same manner as the method described in (Test example B1) in terms of the persistent property of the pharmaceutical in a pulmonary tissue of a normal rat.
As a comparative control group, budesonide alone in the same amount as the compound vb, and a mixture of budesonide and chondroitin sulfate in the same amount as the compound vb were administered. Meanwhile, in the present measurement system, the lower detection limit of budesonide was 1 ng/mL. Meanwhile, the evaluation time points include three points, i.e., Hour 4, 24, and 72.

Series [3] is described as follows: Drug dissociation test: polysaccharide derivative in buffer solution, 36°C, 1 week, HPLC. Type of series: physicochemical. How it is done: In the examples relating to drug dissociation test, the drug dissociation ratio was evaluated as described below.
Sodium dihydrogen phosphate dihydrate (780 mg (5.0 mmol)) was dissolved in 500 mL of distilled water to give a liquid A. Separately, disodium hydrogen phosphate dodecahydrate (1.79 g (5.0 mmol)) was dissolved in 500 mL of distilled water to give a liquid B. By mixing the liquid A and liquid B at ratio of 2:3, a phosphate buffer solution of pH 7.5 was prepared.
0.62 g (10 mmol) of boric acid and 0.75 g (10 mmol) of potassium chloride were weighed and dissolved in 500 mL of distilled water to give a liquid C. Separately, by diluting 0.1 N sodium hydroxide solution with distilled water (×10 dilution), a liquid D was prepared.
50 mL of the liquid C and 7 mL of the liquid D were added to a 100 mL mess flask, and according to dilution to 100 mL with distilled water, a borate buffer solution of pH 8.0 was prepared. Furthermore, 50 mL of the liquid C and 40 mL of the liquid D were added to a 100 mL mess flask, and according to mess-up to 100 mL with distilled water, a borate buffer solution of pH 9.0 was prepared.
Each polysaccharide derivative obtained from above was dissolved in a buffer solution at each pH so as to have a concentration of 5 mg/10 mL, and heated for 1 week in an incubator at 36° C. Then, the drug dissociation ratio during the incubation was evaluated every 24 hours by liquid chromatography (HPLC).
The evaluation was performed by measuring the ratio between the drug amount remained in a polysaccharide derivative and the dissociated drug amount according to use of a size exclusion chromatography column (manufactured by TOSOH, TSKgel α-6000, 7.8 mmI.D.×30 cm).
Detailed conditions for the liquid chromatography are as follows.
Analysis time: 40 minutes
Solution for elution: acetonitrile (for HPLC):physiological saline=1:2
Detector: UV detector (240 nm)

In series [4] the test system is mouse model having antigen-induced rhinitis. Kind of series: Mouse model having antigen-induced rhinitis, cough number. Type of series: in vivo. Conditions: single intranasal administration 20 μL. How it is done:
As a negative control, phosphate buffered saline was used. As a comparative control, 4 mg/mL budesonide suspension was used. […] From Day 1 after the final nasal cavity sensitization—induction, 20 μL of ovalbumin physiological saline (40 mg/mL) was intranasally administered with 24 hour interval to induce a rhinitis reaction. The induction of the rhinitis reaction was performed 8 times in total for 8 days. […] The phosphate buffered saline, aqueous solution of the compound va, and budesonide suspension were administered only once on the day of inducing initial rhinitis reaction, and 1 hour before administering physiological saline containing ovalbumin. Meanwhile, the test was basically performed with n=6. From the first day to Day 7 after inducing initial rhinitis reaction, number of coughs during 10 minutes after the administration of ovalbumin-containing physiological saline was measured.

The subject of series [5] is mouse antigen-induced airway hypersensitivity model. As to the kind of experiment: Mouse antigen-induced airway hypersensitivity model (AHR, Penh, PC100). It is filed as in vivo. As to conditions: single intratracheal administration 40 μL, 1 week before the evaluation. Here is the method:
For the evaluation, BALB/cCrSlc (Japan SLC, Inc., 11-week old) was used. […] Intratracheal administration (volume: 40 μL) of the budesonide suspension, mixture of budesonide and chondroitin sulfate, and an aqueous solution of the compound va was performed by using a glass microsyringe (Ito Micro Syringe, manufactured by ITO SEISAKUSHO CO., LTD.) after fixing the mouse on its back under general anesthesia. […] The administration was performed only once, and it was performed 6 days after the second sensitization. Meanwhile, the test was performed with n=6. Airway hyper responsiveness (AHR) evaluation was performed as described below. On Day 13 after the second sensitization, the mouse was forced to inhale metacholine (hereinbelow, MCh) of 0, 5, 10 and 20 mM, and the airway resistance parameter (Penh) at 3 minutes after the inhalation of metacholine with different concentrations was measured by a device for measuring unrestrained respiratory function (manufactured by Buxco Research System). AUC value of the Penh value was measured, and a graph of MCh concentration vs. AUC was established.

The test system of series [6] is rat antigen-induced asthma model. As to the kind of experiment: Rat antigen-induced asthma model, eosinophils in bronchoalveolar lavage fluid. It is filed as in vivo. How it is done: Intraperitoneal administration of 1 mL of aluminum hydroxide gel containing ovalbumin (1 mg/mL) was performed 3 times with one day interval. 14 Days after performing the first sensitization, intraperitoneal administration of 1 mL of aluminum hydroxide gel containing ovalbumin (1 mg/mL) was performed again followed by the second sensitization. 7 Days after the second sensitization, inhalation exposure of physiological saline (10 mg/mL) containing ovalbumin was performed by using a nebulizer five times with one day interval in order to induce asthma.
The 0.6 mg/mL prednisolone suspension was orally administered by using a sonde for oral administration under no anesthesia to have prednisolone amount of 3 mg/kg.
Meanwhile, the test was performed with n=6 to 12.
24 Hours after the fifth exposure, phosphate buffered saline (2 mL) containing 0.1% bovine serum albumin heated to 37° C. was injected to a bronchus of a rat under pentobarbital anesthesia and collected thereafter. This procedure was repeated 5 times to have bronchoalveolar lavage fluid. The bronchoalveolar lavage fluid was centrifuged for 3 minutes at 200×g and room temperature. The supernatant was discarded, and the pellet was re-suspended in phosphate buffered saline (500 μL) containing 0.1% bovine serum albumin.
Subsequently, a smear sample of the suspension was prepared followed by Diff-Quik staining. According to cell fractionation, ratio of eosinophil in white blood cells was calculated. According to integration with the number of white blood cells in bronchoalveolar lavage fluid, the number of […] in bronchoalveolar lavage fluid was calculated. Meanwhile, the number of white blood cells in bronchoalveolar lavage fluid was measured by using a blood cell counting chamber. The results are shown in FIG. 4 and the following table.
Dose responsiveness of the compound va in an OVA sensitized rat model was determined in the same manner as (Test example B2).
There were three doses for determination, i.e., 0.35 mg/kg, 3.5 mg/kg, and 35 mg/kg, such that the budesonide amount for administration is 0.1 mg/kg, 1 mg/kg, or 10 mg/kg.

With `CCCC1O[C@@H]2C[C@H]3[C@@H]4CCC5=CC(=O)C=C[C@]5(C)[C@H]4[C@@H](O)C[C@]3(C)[C@]2(C(=O)CO)O1` (some centres unmarked) [budesonide], in series [1], the “administration amount at which eosinophil inhibitory activity was shown” value is listed as at least 0.1 mg/kg. In series [2], the concentration at 4 h stood at 471 ng/g, the concentration at 24 h was 0.3 ng/g and the concentration at 72 h was found to be 0.1 ng/g.
In the case of “Chondroitin Sulfate Introduced with 21-β-Alanyl-Budesonide (25 kDa) [Compound va]”, the “Dissociation ratio (%/day)” value is 0.8 %/day in series [3] (pH 7.4, 36°C) and 2.5 %/day in series [3] (pH 8.0, 36°C). Besides, the drug dissociation ratio is recorded as 0.0% in series [3] (pH 7.4, 36°C, day 0); 0.4% in series [3] (pH 7.4, 36°C, day 1); 1.0% in series [3] (pH 7.4, 36°C, day 2); 1.8% in series [3] (pH 7.4, 36°C, day 3); 3.1% in series [3] (pH 7.4, 36°C, day 4); 3.8% in series [3] (pH 7.4, 36°C, day 5). Also, the drug dissociation ratio is reported as 4.4% in series [3] (pH 7.4, 36°C, day 6); 5.3% in series [3] (pH 7.4, 36°C, day 7); 0.0% in series [3] (pH 8.0, 36°C, day 0); 2.3% in series [3] (pH 8.0, 36°C, day 1); 4.2% in series [3] (pH 8.0, 36°C, day 2); 7.7% in series [3] (pH 8.0, 36°C, day 3). For the same compound, the drug dissociation ratio was determined as 10.3% in series [3] (pH 8.0, 36°C, day 4); 12.8% in series [3] (pH 8.0, 36°C, day 5); 14.0% in series [3] (pH 8.0, 36°C, day 6); 17.5% in series [3] (pH 8.0, 36°C, day 7). Also, the “change in average cough number Day 1 to Day 7 and total cough number during 8 days” value in series [4] is listed as “exhibited an inhibition”. Moreover, the “inhibition of enhanced sensitivity to MCh (airway hyper responsiveness, PC100)” value in series [5] is “inhibited to the level of the control group”. Also, the eosinophil-inhibiting activity entry in series [6] (0.35 mg/kg (0.1 mg/kg in budesonide amount), 1 week after the administration) is given as “eosinophil-inhibiting activity was shown”. The “dose responsiveness of eosinophil-inhibiting activity” value in series [6] (0.35, 3.5 and 35 mg/kg) is “observed with dose responsiveness”.

These data come from patent publication US20160158369A1, “PHARMACEUTICAL COMPOSITION FOR RESPIRATORY ADMINISTRATION” (SEIKAGAKU CORPORATION, priority 2013, published 2016).
